Test results from patent publication US20220017604A1 (WASHINGTON UNIVERSITY, published 2022).
“And” between values parts separate entries of the source, which are not always exact repeats. Equal values may be shown once.

Molecular target: S protein of infectious SARS-CoV-2 strain 2019 n-CoV/USA_WA1/2020 (SARS-CoV-2, UniProt P0DTC2 14-1273)
Assay: cell-based or functional assay

B1: Hu-Ab-1 (Hu-2B04) (antibody, V domains shown)
VH: EVQLQESGPGLVKPSETLSLTCTVSGFSLINYAISWVRQPAGKGLEWLGVIWTGGGTNYNAALKSRLSISKDNSKSQVSLKMNSVTAADTAVYYCARKDYYGRYYGMDYWGQGTTVTVSS
VL: QAVVTQEPSLTVSPGGTVTLTCRSSTGAVTTSNYANWVQEKPGQAFRGLIGGTNNRAPGVPARFSGSLLGDKAALTLSGAQPEDEAEYFCALWYNNHWVFGGGTKLTVLG
With B1 the “IC50, live virus neutralization assay” value was 1.65 ng/mL.

B2: 2H04 (antibody, V domains shown)
VH: EVQLQQSGAELVKPGASVKMSCKASGYTFTSYWITWVKQRPGQGLEWIGDIYPGSGSTKYNEKFRSEATLTVDTSSTTAYMQLSSLTSEDSAVYYCARWDFYGSRTFDYWGQGTTLTVSS
VL: DIVLTQSPAILSVSPGERVSFSCRASQNIGTIIHWYQQRTNGSPRLLIKYASESVSGIPSRFSGSGSGTDFTLSINSVESEDIADYYCQQSSSWPLTFGAGTKLELK
With B2 the “IC50, neutralization of infectious SARS-CoV-2” value was < 500 ng/mL.

B3: murine/human chimeric mAb Ab-1 (2B04) (antibody, V domains shown)
VH: QVQLKQSGPGLVAPSQSLSITCTVSGFSLINYAISWVRQPPGKGLEWLGVIWTGGGTNYNSALKSRLSISKDNSKSQVFLKMNSLQTDDTARYYCARKDYYGRYYGMDYWGQGTSVTVSS
VL: QAVVTQESALTTSPGETVTLTCRSSTGAVTTSNYANWVQEKPDHLFTGLIGGTNNRAPGVPARFSGSLIGDKAALTITGAQTEDEAIYFCALWYNNHWVFGGGTKLTVL
With B3 the “IC50, focus reduction neutralization test (FRNT) on Vero E6 cells” value was 1.46 ng/mL and the “IC50, neutralization of infectious SARS-CoV-2” value was < 2 ng/mL and < 500 ng/mL.
